Laboratory results from FireProtDB (doi:10.1021/bi980431i).

Details: Homo sapiens; pH 2.7; Thermal; DSC; glycine 0.05 M; reversible: yes; whole UniProt chain shown

B1: Lysozyme C wild type, P61626 (protein)
chain: MKALIVLGLVLLSVTVQGKVFERCELARTLKRLGMDGYRGISLANWMCLAKWESGYNTRATNYNAGDRSTDYGIFQINSRYWCNDGKTPGAVNACHLSCSALLQDNIADAVACAKRVVRDPQGIRAWVAWRNRCQNRDVRQYVQGCGV
Tm: 64.9 °C
heat capacity change of unfolding: 1.58 kcal/mol/K
unfolding enthalpy (calorimetric): 114 kcal/mol
unfolding enthalpy (van 't Hoff): 120 kcal/mol
